In one assay the test system is mouse MMP-9 mRNA. The experiment in a line: Quantitative RT-PCR of MMP-9 mRNA in RAW 264.7 cells. The class given is cell-based. The conditions noted are these: RANKL/LZ 200 ng/ml or TNFα 20 ng/ml, various times. An excerpt: MMP-9 mRNA is elevated greater than 350-fold by RANK-L, but is not increased by TNFα. This specificity is helpful in screening for inhibitors of RANK signal transduction.

In assay [1] the test system is MMP-9 (SEQ ID NO:11)/luciferase promoter. Kind of assay: MMP-9/luciferase reporter in RAW 264.7 cells. The conditions noted are these: 1 μg/ml for 18 hours. The class given is cell-based, murine. As to the method:
Additionally, RAW 264.7 cells (6×10^6 cells) were transfected with 15 μg of MMP-9 (SEQ ID NO:11)/luciferase plasmid DNA using DEAE/dextran. Two hours after transfection, cells were divided into two equal amounts and further incubated for 24 hours. Addition of 1 μg/ml of a leucine zipper form of murine RANK-L for 18 hours was sufficient to induce the MMP-9 (SEQ ID NO:11)/luciferase promoter 10-15 fold.
On the technique in general: In a reporter assay the amount or activity of a reporter protein is the signal.

The next assay relates to mouse TRAP mRNA. Kind of assay: Quantitative RT-PCR of TRAP mRNA in RAW 264.7 cells. The class given is cell-based. The conditions noted are these: RANKL/LZ 200 ng/ml or TNFα 20 ng/ml, various times.
The next assay deals with human TRAP promoter. Kind of assay: human TRAP promoter/luciferase reporter in 293/EBNA cells. The conditions noted are these: 40 ng reporter. It is filed as cell-based. The text has this: (§1) This example describes the activation of the TRAP promoter. A 2.6 kb DNA fragment containing the human TRAP promoter was obtained by digesting the plasmid pBL2HT2.2 with the restriction endonuclease ApaI. The cloning of the human TRAP gene 5′ region and the construction of pBL2HT2.2 are fully described in Reddy et al. (Bone 16:587-593 (1995)). A DNA containing the mouse TRAP promoter (SEQ ID NO:12) and a DNA containing the murine MMP-9 promoter (SEQ ID NO:11) also were used for these experiments. DNAs containing the promoters were fused to the luciferase reporter gene. These promoter/reporter constructs were transfected into human 293/EBNA cells along with various combinations of expression vectors that encoded full-length human RANK (SEQ ID NO:2) and human full-length RANK-L proteins (SEQ ID NO:6).
For the human TRAP promoter, the 1.9 kb […] fragment containing the promoter activity isolated from the region upstream of the human TRAP gene (Reddy et al., 1995) was fused to a luciferase reporter and transfected (40 ng) into 293/EBNA cells. The combination of human RANK (SEQ ID NO:2) and human RANK-L (SEQ ID NO:6) increased reporter expression approximately 1.5 fold.

Assay [2] relates to mouse TRAP promoter (SEQ ID NO:12). Kind of assay: mouse TRAP promoter/luciferase reporter in 293/EBNA cells. The conditions noted are these: 24 hours after transfection, 0.4 ng RANK vector, 20 ng RANK-L vector. The class given is cell-based.
From the text: as §1
For the mouse TRAP promoter (SEQ ID NO:12), 2×10^5 293/EBNA cells were transfected using DEAE/dextran with 40 ng of a plasmid encoding approximately 2 kb of the mouse TRAP promoter (SEQ ID NO:12) fused to a luciferase reporter, 20 ng of an expression vector encoding RANK-L (SEQ ID NO:6), and 0.4 ng of an expression vector encoding RANK (SEQ ID NO:2). Twenty four hours after transfection, luciferase activity in cell lysates was measured according to manufacturer's instructions (Promega) using a EG&G/Berthold luminometer. […]

B1: leucine zipper form of murine RANK-L: soluble leucine zipper fusion of murine RANK-L (protein)
chain: YFRAQMDPNRISEDSTHCFYRILRLHENADLQDSTLESEDTLPDSCRRMKQAFQGAVQKELQHIVGPQRFSGAPAMMEGSWLDVAQRGKPEAQPFAHLTINAASIPSGSHKVTLSSWYHDRGWAKISNMTLSNGKLRVNQDGFYYLYANICFRHHETSGSVPTDYLQLMVYVVKTSIKIPSSHNLMKGGSTKNWSGNSEFHFYSINVGGFFKLRAGEEISIQVSNPSLLDPDQDATYFGAFKVQDID
modifications: left off: a dimerising Fc or GST
Regarding B1, the “MMP-9 mRNA elevation” value in the assay with mouse MMP-9 mRNA was “greater than 350 fold”. Also, in assay [1], the “induction of MMP-9/luciferase promoter” value is reported as 10-15 fold. The “TRAP mRNA elevation” value in the assay with mouse TRAP mRNA is on record as “greater than 250 fold”.

B2: RANK (SEQ ID NO:2) and RANK-L (SEQ ID NO:6): co-transfection of expression vectors encoding full-length human RANK and human full-length RANK-L (protein, listed as Homo sapiens)
chain 1: MAPRARRRRPLFALLLLCALLARLQVALQIAPPCTSEKHYEHLGRCCNKCEPGKYMSSKCTTTSDSVCLPCGPDEYLDSWNEEDKCLLHKVCDTGKALVAVVAGNSTTPRRCACTAGYHWSQDCECCRRNTECAPGLGAQHPLQLNKDTVCKPCLAGYFSDAFSSTDKCRPWTNCTFLGKRVEHHGTEKSDAVCSSSLPARKPPNEPHVYLPGLIILLLFASVALVAAIIFGVCYRKKGKALTANLWHWINEACGRLSGDKESSGDSCVSTHTANFGQQGACEGVLLLTLEEKTFPEDMCYPDQGGVCQGTCVGGGPYAQGEDARMLSLVSKTEIEEDSFRQMPTEDEYMDRPSQPTDQLLFLTEPGSKSTPPFSEPLEVGENDSLSQCFTGTQSTVGSESCNCTEPLCRTDWTPMSSENYLQKEVDSGHCPHWAASPSPNWADVCTGCRNPPGEDCEPLVGSPKRGPLPQCAYGMGLPPEEEASRTEARDQPEDGADGRLPSSARAGAGSGSSPGGQSPASGNVTGNSNSTFISSGQVMNFKGDIIVVYVSQTSQEGAAAAAEPMGRPVQEETLARRDSFAGNGPRFPDPCGGPEGLREPEKASRPVQEQGGAKA
chain 2: MRRASRDYTKYLRGSEEMGGGPGAPHEGPLHAPPPPAPHQPPAASRSMFVALLGLGLGQVVCSVALFFYFRAQMDPNRISEDGTHCIYRILRLHENADFQDTTLESQDTKLIPDSCRRIKQAFQGAVQKELQHIVGSQHIRAEKAMVDGSWLDLAKRSKLEAQPFAHLTINATDIPSGSHKVSLSSWYHDRGWAKISNMTFSNGKLIVNQDGFYYLYANICFRHHETSGDLATEYLQLMVYVTKTSIKIPSSHTLMKGGSTKYWSGNSEFHFYSINVGGFFKLRSGEEISIEVSNPSLLDPDQDATYFGAFKVRDID
As to B2, the figures for the “increase of reporter expression (luciferase)” value (in the assay on human TRAP promoter; in assay [2]) were “approximately 1.5 fold” and “approximately 4 fold”, respectively.

These data come from patent publication US7572594B2, “Screening assays for agonists or antagonists or receptor activator of NF-κB” (Immunex Corporation, priority 2000, dated 2009).
